Assays:
[1] = tested on: cleavable oligonucleotide; assay: Enzymatic release of BHQ-1 quencher from FITC-labelled cleavable oligonucleotide, denaturing gel; type: biochemical; conditions: 10-fold serial dilutions of stock enzyme from 10^−2 to 10^−5 in 10 mM Tris-HCl pH 7.5, 1 mM EDTA; 150 nM cleavable oligonucleotide
From the text: Referring now to FIG. 4, to show cleavage of the linker and release of the pharmacore oligonucleotides were made which incorporated a fluorophore (FITC, shown as F in FIG. 4) 5′ to the cleavable linker within the sequence of the cleavable oligonucleotide. A quencher molecule, BHQ-1, was then attached to the cleavable linker. This can be released by cleavage in the same manner as any chemical structure used in library generation. Light up of the oligonucleotide is seen when the quencher is removed from the cleavable linker.
Three different enzymes have been identified which cleave their associated linkers in a scarless manner (RNase A, RNase T1 A and RNase 1 A; labelled as enzymes A, B and C respectively in FIG. 4). All 3 were tested with their compatriot linkers. In each case 10 μl reactions were set up; 10 mM Tris-HCl, 1 mM EDTA, 150 nM cleavable oligonucleotide 0.1 μl of stock enzyme (RNase A=10 mg/ml, RNase T1=10 mg/ml RNase 1=1.5 mg/ml) then to 10 μl with nuclease free water. Samples were incubated for 15 minutes at 37° C. and then 10 μL denaturing loading dye added (95% formamide, 0.1% xylene cyanole, 0.1% Bromophenol Blue, 20 mM Tris-HCl pH 7.5). Samples were boiled for 2 minutes at 95° C. and then rapidly cooled to 4° C. at 4° C./s. These samples were then loaded onto a denaturing TBE-gel (12.5% polyacrylamide, 7M Urea). The gel was run at 150V for 75 minutes and the imaged using a Syngene Ingenius3 system exciting the FITC. Release of the quencher means the fluorophore can be seen and imaged as ‘light up’. This is seen as appearance of yellow DNA band in the presence of enzyme. By staining with SyBr gold (Thermo) DNA can be seen and this is again quenched when quencher is present but the size shift corresponding to the change in mass can be seen as well as increased signal (grey scale image below fluorophore, FIG. 4). In both cases we can see release only occurs in the presence of the enzymes and is rapid (<15 minutes). […]

RNA guides = assay: RNaseA cleavage of RNA guides in growth media; type: biochemical
[2] = tested on: cleavable oligonucleotide; assay: Enzymatic release of payload from cleavable linker in 100 μm aqueous droplets; type: biochemical; conditions: 10 μl stock RNase A (10 mg/ml) per 1 ml aqueous phase, 37° C. for 15 minutes, 100 μm droplets
Procedure: We also confirmed that the enzymes function in the droplet environment (see FIG. 5). Results are shown for RNase A. 1 ml of aqueous phase was set up using 10 mM Tris-HCl, 1 mM EDTA, 150 nM cleavable oligonucleotide 10 μl of stock RNase A (10 mg/ml) then to 1 ml with nuclease free water. Droplets of […] mean diameter were made using a 100 μm etch depth chip with the aqueous phase as described above and the oil phase comprising of PSF-2 cST oil (Clearco Products Inc.) with 2% w/v Gransurf G67 (Grant Industries Inc.) Droplets were incubated with and without enzyme at 37° C. for 15 minutes and them imaged under a Floid fluorescence microscope illuminating at 482/18 nm and emission filters of 532/59 nm.

Jurkat cells = assay: Effect of RNaseA in the cell mixture on cellular growth; type: cell-based; conditions: 0.1 μg/ml in the cell mixture
From the text: DNA guides assembly of monomers—were synthesised using conventional chemistry the RNA tags were synthesised in advance by IDT. The last 3 nucleotides contain phosphorothioate linkages to prevent cleavage by exonucleases. Individual reagents are then tagged with a guide to a specific RNA specific to a unique sequence incorporated into the guide oligonucleotide (100 unique monomers can be assembled, assuming up to 4 guide sequences into over 100,000,000 unique compounds). […] 1) Beads are packed into a column (each bead is clonal with a unique DNA sequence to guide assembly but μM concentrations of this clonal guide on each bead) and at 20 μM 200 million can be present per ml of bead volume. 2) A pool of monomers and appropriate reagents are then washed onto the column and reactions allowed to proceed, the column can be washed and new reaction chemistry added as needed (note fresh monomers can also be added). 3) Chemical synthesis varies with monomers used (see example 2, section 4). 4) Finally the beads are washed with 10 column volumes of TE with 100 mM NaCl and then 2 column volumes of appropriate media for growth of cells in the phenotypic screen e.g. RPMI. 5) Beads are then collected in the growth media and ready for encapsulation with target cells. […]

Molecule: RNase 1: enzyme which cleaves its associated linker in a scarless manner; stock 1.5 mg/ml
- dilution of the enzyme at which activity is seen [1]: 10^−3

B1: RNase A: enzyme which cleaves its associated RNA linker in a scarless manner; stock 10 mg/ml (protein, UniProt P61823 27-150, looked up)
Ribonuclease pancreatic: KETAAAKFERQHMDSSTSAASSSNYCNQMMKSRNLTKDRCKPVNTFVHESLADVQAVCSQKNVACKNGQTNCYQSYSTMSITDCRETGSSKYPNCAYKTTQANKHIIVACEGNPYVPVHFDASV
- duration of enzyme activity in growth media (RNA guides; 0.1 μg/ml, growth media tested): at least 48 h
- time for cleavage of RNA guides (RNA guides; in RPMI, lysogeny broth, tryptic soy broth and DMEM): 15 to 20 min
- dilution of the enzyme at which activity is seen [1]: 10^−4
- light up (quencher release) in droplets [2]: light up occurs in droplets in the presence of enzyme
- effect on cellular growth (Jurkat cells): doesn't affect cellular growth

B2: RNase T1: enzyme which cleaves its associated linker in a scarless manner; stock 10 mg/ml (protein, UniProt P00651 27-130, looked up)
Guanyl-specific ribonuclease …: ACDYTCGSNCYSSSDVSTAQAAGYQLHEDGETVGSNSYPHKYNNYEGFDFSVSSPYYEWPILSSGDVYSGGSPGADRVVFNENNQLAGVITHTGASGNNFVECT
- dilution of the enzyme at which activity is seen [1]: 10^−3
